Test results: patent US10513563

Biological target: transferrin receptor on H4IIE hepatoma cells (rat) (UniProt Q99376)
Experiment: cell-based or functional assay

Chain of UniProt Q99376 (Q99376 whole entry): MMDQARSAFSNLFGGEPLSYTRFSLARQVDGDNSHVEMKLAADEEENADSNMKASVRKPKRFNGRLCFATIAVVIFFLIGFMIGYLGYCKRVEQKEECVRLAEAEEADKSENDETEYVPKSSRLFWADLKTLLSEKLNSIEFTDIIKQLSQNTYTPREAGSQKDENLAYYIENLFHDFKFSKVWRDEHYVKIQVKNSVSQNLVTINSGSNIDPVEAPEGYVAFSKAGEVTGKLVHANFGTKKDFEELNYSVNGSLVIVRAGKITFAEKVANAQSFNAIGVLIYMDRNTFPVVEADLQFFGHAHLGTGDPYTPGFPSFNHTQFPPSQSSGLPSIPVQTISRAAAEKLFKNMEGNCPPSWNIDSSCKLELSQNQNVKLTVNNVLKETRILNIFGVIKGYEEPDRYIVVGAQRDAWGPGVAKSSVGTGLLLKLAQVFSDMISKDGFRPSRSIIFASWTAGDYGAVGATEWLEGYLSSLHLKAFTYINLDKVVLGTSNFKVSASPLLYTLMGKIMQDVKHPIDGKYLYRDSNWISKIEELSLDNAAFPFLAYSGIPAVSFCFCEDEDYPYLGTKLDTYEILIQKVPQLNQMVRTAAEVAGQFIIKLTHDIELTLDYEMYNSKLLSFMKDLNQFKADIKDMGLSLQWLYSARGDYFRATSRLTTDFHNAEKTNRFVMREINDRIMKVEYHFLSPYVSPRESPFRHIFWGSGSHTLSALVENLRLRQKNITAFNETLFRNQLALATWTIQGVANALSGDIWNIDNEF

“PI-Tf fusion protein (proinsulin-transferrin recombinant fusion protein)” was tested. Which IC50 of inhibition of glucose production in H4IIE cells (24 hr treatment) did it give?
Its IC50 of inhibition of glucose production in H4IIE cells (24 hr treatment) is 4.6 pM.

What about the activity in inhibition of glucose production in H4IIE cells relative to proinsulin and insulin of the same substance?
The activity in inhibition of glucose production in H4IIE cells relative to proinsulin and insulin was 300 fold.
